From US20190091227A1, “METHODS FOR TREATING ER+, HER2-, HRG+ BREAST CANCER USING COMBINATION THERAPIES COMPRISING AN ANTI-ERBB3 ANTIBODY” (Merrimack Pharmaceuticals, Inc., priority 2016, published 2019)
“Also recorded” adds a separate entry of the source. Like-named read-outs stand apart in the source and are kept apart here.

Legend:
RB = RB phosphorylation (S807/811, S780) by Western blotting in MCF7 cells; type: cell-based, human; settings: MCF7, 20-24 hours; HRG 10 nM, fulvestrant 50 nM, palbociclib, abemaciclib 40 nM
Method: MCF7 cells were cultured as described above. […] Cellular lysates were prepared by lysis in MPER lysis buffer with the addition of protease and phosphatase inhibitors for 30 mins on ice. Cellular debris were removed by centrifugation at 10,000 rpm. Proteins were analyzed by Western blotting according to standard protocols. Protein loading was estimated by blotting with a β-actin antibody (β-Actin (13E5) Rabbit mAb #4970 Cell Signal) and RB activation was measured by detection of phosphorylation of RB (pRB) at pRb (S807/811): Cat #8516 pRb (S780): Cat #8180. Control antibodies as follows total AKT: Cat #9272 pAKT: Cat #4060.

[1] = cited from earlier work
[2] = tested on: metastatic ER-positive HER2-negative breast cancer; settings: letrozole plus palbociclib, combination arm; cited from earlier work
CDK2 = CDK2 activation (phospho-Thr160) by Western blotting in MCF7 cells; type: cell-based, human; settings: for CDK2 activation: MCF7, agent alone, 20-24 hours, HRG 10 nM, fulvestrant, palbociclib, abemaciclib 100 nM
Method: Cellular lysates were prepared by lysis in MPER lysis buffer with the addition of protease and phosphatase inhibitors for 30 minutes on ice. Cellular debris was removed by centrifugation at 10,000 rpm. Proteins were analyzed by Western blotting according to standard protocols.

MCF7 cells [3] = assay: Proliferation assay (Cell Titer-Glo), MCF7; type: cell-based, human
Method: (§1) Cells were seeded in duplicate or triplicate at 1500 to 5000 cells per well in 96 well plates, Opaque-walled 96-well plates with clear bottom: 96-well, Black/Clear, Flat bottom with lid, FALCON, 353219 in reduced serum conditions at either 3% v/v FBS or 1% v/v FBS. The day after plating recombinant HRGβ1 was added to yield a final concentration of 10 nM. Control wells received media without HRGβ1. Plates were then incubated for the indicated time period of 4 to 6 days at 37° C. in a humid atmosphere with 95% air, 5% CO2.
(§2) The day after plating recombinant HRGβ1 was added to yield a final concentration of 10 nM. Control wells received media without HRGβ1. […] Where indicated CDK inhibitors were added at 10 μM and dilutions were performed to generate a dose-response curve with 2 controls wells per row. Plates were then incubated for the indicated time period of 4 to 6 days at 37° C. in a humid atmosphere with 95% air, 5% CO2. Growth inhibition was calculated as a function of the relative inhibition or proliferation of cells treated with either growth factor or antagonists to cells treated with diluent only, over the same time period.
(§3) The day after plating recombinant HRGβ1 was added to yield a final concentration of 10 nM. Control wells received media without HRGβ1. […] Where indicated CDK inhibitors were added at 10 μM and dilutions were performed to generate a dose-response curve with 2 controls wells per row. Plates were then incubated for the indicated time period of 4 to 6 days at 37° C. in a humid atmosphere with 95% air, 5% CO2.
(§4) To measure proliferation, Cell Titer-Glo (CTG) assays were performed as per manufacturer's instructions. Specifically, reagent-1 and reagent-2 were equilibrated to room temperature at which point reagent-1 was added to reagent-2 and mixed by vortex. Test plates containing cells were equilibrated to room temperature for 30 minutes at which point an equal volume of CTG reagent was added to each well of the test plate, typically 100 μl to give a final volume of 200 μl per well. Each plate was then sealed with a foil plate sealer and mixed on an orbital shaker for 10 minutes to lyse cells and release cellular ATP. Following mixing plates were incubated at room temperature for 15 minutes to stabilize the luminescent signal. Data was collected by measuring relative luminescence on a Synergy H1 plate reader using the luminescence program. Growth was calculated and expressed as a relative value to the unstimulated control wells on each individual plate. Growth inhibition was calculated as a function of the relative inhibition of cells treated with antagonists to the growth of cells treated with diluent only, over the same time period. Data was then plotted using GraphPad Prism software.

MCF7 cells [4] = assay: Cell cycle / S-phase by EdU incorporation and flow cytometry in MCF7 cells; type: cell-based, human
Method: FIG. 13 is a representative FACS plot of the cell cycle distribution. The gate settings and percentage for cells in G0/G1, S and G2/M phases are indicated. DNA synthesis (S-phase) was determined by quantifying cells positive for both EdU incorporation and DNA content.

HCC1428 cells = assay: Proliferation assay (Cell Titer-Glo), HCC1428; type: cell-based, human; settings: HCC1428, stimulated with HRG for 6 days
Method: as §1
(§5) To measure proliferation, Cell Titer-Glo (CTG) assays were performed as per manufacturer's instructions. Specifically, reagent-1 and reagent-2 were equilibrated to room temperature at which point reagent-1 was added to reagent-2 and mixed by vortex. […] Data was collected by measuring relative luminescence on a Synergy H1 plate reader using the luminescence program. Growth was calculated and expressed as a relative value to the unstimulated control wells on each individual plate. Growth inhibition was calculated as a function of the relative inhibition of cells treated with antagonists to the growth of cells treated with diluent only, over the same time period. […]

ZR75-1 cells = assay: Proliferation assay (Cell Titer-Glo), ZR75-1; type: cell-based, human; settings: ZR75-1
Method: as §2
The day after plating recombinant HRGβ1 was added to yield a final concentration of 10 nM. Control wells received media without HRGβ1. […]
as §5, with “instructions.” for “instructions. Specifically, reagent-1 and reagent-2 were equilibrated to room temperature at which point reagent-1 was added to reagent-2 and mixed by vortex.”

T47D cells = assay: Proliferation assay (Cell Titer-Glo), T47D; type: cell-based, human
Method: as §1, §2, §3, §4

MCF7 cells [5] = assay: Proliferation assay (Cell Titer-Glo), MCF7; type: cell-based, human; settings: MCF7, ligands 1 nM, fulvestrant 50 nM, palbociclib 40 nM, 6 days

CC(=O)c1c(C)c2cnc(Nc3ccc(N4CCNCC4)cn3)nc2n(C2CCCC2)c1=O [palbociclib, 6-acetyl-8-cyclopentyl-5-methyl-2-{[5-(piperazin-1-yl)pyridin-2-yl]amino}pyrido[2,3-d]pyrimidin-7(8H)-one]
RB phosphorylation / activation (RB): decrease RB activation | solubility ([1]; above pH 4): reduces significantly | solubility ([1]; at or below pH 4): high-solubility compound | overall survival [2]: did not reach statistical significance | progression free survival (PFS) [2]: statistically significant increase | CDK2 activation (CDK2): inhibited CDK2 activation | proliferation (MCF7 cells [3]; MCF7, single agent CDK4/6 inhibitor over a dose range, 6 days): inhibited proliferation in a dose dependent manner | S-phase cell cycle progression (MCF7 cells [4]; MCF7, single agents in the absence of HRG): efficacious at inhibiting S-phase cell cycle progression

B1: HRG: heregulin, naturally occurring ligand of ErbB3; recombinant HRGβ1 from R&D Systems used in the assays (protein)
chain: SHLVKCAEKEKTFCVNGGECFMVKDLSNPSRYLCKCPNEFTGDRCQNYVMASFYKHLGIEFMEAE
RB phosphorylation / activation (RB): promoted the phosphorylation and activation of RB | proliferation (HCC1428 cells): induced proliferation | effect of HRG on CDK4/6 inhibitor activity (ZR75-1 cells): inhibited the activity of CDK4/6 inhibitors | effect of HRG on inhibition of CDK2 activation by fulvestrant, palbociclib or abemaciclib (CDK2; MCF7, HRG 10 nM): blocked this inhibitory activity | CDK2 activation (CDK2): can activate CDK2 | effect of HRG on the CDK4/6 inhibitor-fulvestrant combination (MCF7 cells [3]; MCF7): blocked | effect of HRG on CDK4/6 inhibitor activity (MCF7 cells [3]; MCF7, HRG 10 nM, CDK4/6 inhibitor dose range): significantly repressed CDK4/6 inhibitor activity | proliferation (MCF7 cells [3]; MCF7, estradiol and HRG in combination): increased proliferation | proliferation (MCF7 cells [3]; MCF7, stimulated with HRG for 6 days): induced proliferation; also recorded: significantly increased the proliferation | proliferation (T47D cells; estradiol and HRG in combination): increased proliferation | inhibiting fulvestrant, palbociclib and combination activity, ligand comparison (T47D cells; ligands 1 nM, fulvestrant 50 nM, palbociclib 40 nM, 6 days): most effective ligand | proliferation (T47D cells; stimulated with HRG for 6 days): induced proliferation; also recorded: significantly increased the proliferation | effect of HRG on cell cycle inhibitory activity of the palbociclib-fulvestrant combination (MCF7 cells [4]; MCF7): blocked the cell cycle inhibitory activity | proportion of cells in the S-phase (MCF7 cells [4]; MCF7, 24 hours, resting cells 15.8%): 55% | effect of HRG on cell cycle inhibitory activity of fulvestrant or palbociclib (MCF7 cells [4]; MCF7, single agents): significantly inhibited | inhibiting fulvestrant, palbociclib and combination activity, ligand comparison (MCF7 cells [5]): most effective ligand
